B1: Tyrosine-protein phosphatase non-receptor type 1 (Homo sapiens), P18031 (parent)
chain: MEMEKEFEQIDKSGSWAAIYQDIRHEASDFPCRVAKLPKNKNRNRYRDVSPFDHSRIKLHQEDNDYINASLIKMEEAQRSYILTQGPLPNTCGHFWEMVWEQKSRGVVMLNRVMEKGSLKCAQYWPQKEEKEMIFEDTNLKLTLISEDIKSYYTVRQLELENLTTQETREILHFHYTTWPDFGVPESPASFLNFLFKVRESGSLSPEHGPVVVHCSAGIGRSGTFCLADTCLLLMDKRKDPSSVDIKKVLLEMRKFRMGLIQTADQLRFSYLAVIEGAKFIMGDSSVQDQWKELSHEDLEPPPEHIPPPPRPPKRILEPHNGKCREFFPNHQWVKEETQEDKDCPIKEEKGSPLNAAPYGIESMSQDTEVRSRVVGGSLRGAQAASPAKGEPSLPEKDEDHALSYWKPFLVNMCVATVLTAGAYLCYRFLFNSNT
partner: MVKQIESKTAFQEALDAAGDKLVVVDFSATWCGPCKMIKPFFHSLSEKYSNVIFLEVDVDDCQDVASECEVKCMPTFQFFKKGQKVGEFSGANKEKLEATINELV

Variants of: B1
Settings: with thio_human TXN

Variant | effect of a mutation on the interaction
C215A;S216A | disrupting interaction

From IntAct's records for PubMed 24976139
